Test results as given in US20220324934A1 (Stanford University, published 2022).

T1: IL-2Rβ (UniProt P14784 27-240, limits assumed, biotinylated (site not stated))
T1 construct: also called CD122; IL-2Rbeta
T1 sequence (looked up): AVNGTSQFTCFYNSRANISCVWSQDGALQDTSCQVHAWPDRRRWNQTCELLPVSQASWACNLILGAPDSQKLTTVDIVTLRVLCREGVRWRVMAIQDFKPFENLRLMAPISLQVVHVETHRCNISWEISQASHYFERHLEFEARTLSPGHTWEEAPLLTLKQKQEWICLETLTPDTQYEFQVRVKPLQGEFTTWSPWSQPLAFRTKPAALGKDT


Legend:
IL-2Rβ [1] = target: T1, IL-2Rβ; assay: SPR Biacore T100, kinetic fit; biotinylated IL-2Rβ on chip
Procedure: (§1) To perform the surface plasmon resonance (SPR) analysis, the test variant protein was made in Expi293 as described previously. […] Experiments were performed on a BlAcore® T100 (GE Healthcare, Piscataway, N.J.).

IL-2Rβ [2] = target: T1, IL-2Rβ; assay: SPR Biacore T100, steady-state; biotinylated IL-2Rβ on chip
Procedure: as §1

Binder | Kd (IL-2Rβ [1]) | koff (IL-2Rβ [1]) | Kd (IL-2Rβ [2])
Super-2 (H9) IL-2 variant, expressed as MSA fusion protein (ligand, not shown: large carriers; small tags and cut ends, also called H9 super-2; MSA-H9-super-2) APTSSSTKKTQLQLEHLLLDLQMILNGINNYKNPKLTRMLTFKFYMPKKATELKHLQCLEEELKPLEEVLNLAQSKNFHFDPRDVVSNINVFVLELKGSETTFMCEYADETATIVEFLNRWITFCQSIISTLT | 2.1 nM | 0.0015 s⁻¹ | 16.2 nM
in silico designed IL-2 variant SEQ ID NO: 16, MSA fusion protein (ligand, not shown: large carriers; small tags and cut ends) APTSSSTKKTQLQLEHLLLDLQMILNMLNNYDNPKLTRLLTFKFYMPKKATSLKHLQCLEEELKPLEEALNQAQSKNFHLDPRDLISNINVIVLELKGSETTFMCEYADETATIIEFLNRWITFCQSIISTLT | 221 nM | 0.071 s⁻¹ | 290 nM
in silico designed IL-2 variant SEQ ID NO: 14, MSA fusion protein (ligand, not shown: large carriers; small tags and cut ends) APTSSSTKKTQLQLEHLLLDLQMILNMLNNYDNPKLTRMLTFKFYMPKKATELKHLQCLEEELKPLEEALNLAQSKNFHLDPRDLISNINVIVLELKGSETTFMCEYADETATIIEFLNRWITFCQSIISTLT | 171 nM | 0.072 s⁻¹ | 196 nM
in silico designed IL-2 variant SEQ ID NO: 15, MSA fusion protein (ligand, not shown: large carriers; small tags and cut ends) APTSSSTKKTQLQLEHLLLDLQMILNMLNNYDNPKLTRMLTFKFYMPKKATELKHLQCLEEELKPLEEALNQAQSKNFHLDPRDLISNINVIVLELKGSETTFMCEYADETATIIEFLNRWITFCQSIISTLT | 227 nM | 0.064 s⁻¹ | 498 nM
in silico designed IL-2 variant SEQ ID NO: 4, MSA fusion protein (ligand, not shown: large carriers; small tags and cut ends) APTSSSTKKTQLQLEHLLLDLQMILNMLNNYDNPKLTRLLTFKFYMPKKATSLKHLQCLEEELKPLEEALNQAGDDPKTIRDLISNINVIVLELKGSETTFMCEYADETATIIEFLNRWITFCQSIISTLT | 339 nM | 0.05 s⁻¹ | 389 nM
in silico designed IL-2 variant SEQ ID NO: 3, MSA fusion protein (ligand, not shown: large carriers; small tags and cut ends) APTSSSTKKTQLQLEHLLLDLQMILNMLNNYDNPKLTRLLTFKFYMPKKATSLKHLQCLEEELKPLEEALNAAGDDPKTIRDLISNINVIVLELKGSETTFMCEYADETATIIEFLNRWITFCQSIISTLT | 282 nM | 0.042 s⁻¹ | 366 nM
in silico designed IL-2 variant SEQ ID NO: 13, MSA fusion protein (ligand, not shown: large carriers; small tags and cut ends) APTSSSTKKTQLQLEHLLLDLQMILNMLNNASNPSLTRMLTFKFYMPKKATELKHLQCLEEELKPLEEALNTAADDQDKIRDLISNINVIVLELKGSETTFMCEYADETATIIEFLNRWITFCQSIISTLT | 174 nM | 0.036 s⁻¹ | 207 nM
in silico designed IL-2 variant SEQ ID NO: 1, MSA fusion protein (ligand, not shown: large carriers; small tags and cut ends) APTSSSTKKTQLQLEHLLLDLQMILNMLNNYDNPKLTRLLTFKFYMPKKATSLKHLQCLEEELKPLEEALNAAGDDPKTIRDVVSNINVFVLELKGSETTFMCEYADETATIIEFLNRWITFCQSIISTLT | 25 nM | 0.0066 s⁻¹ | 61.3 nM

Continued by falling Kd (IL-2Rβ [1]), values first:

Kd (IL-2Rβ [1]) | koff (IL-2Rβ [1]) | Kd (IL-2Rβ [2]) | Binder
332 nM | 0.055 s⁻¹ | 411 nM | in silico designed IL-2 variant SEQ ID NO: 2, MSA fusion protein (ligand, not shown: large carriers; small tags and cut ends) APTSSSTKKTQLQLEHLLLDLQMILNMLNNYDNPKLTRLLTFKFYMPKKATELKHLQCLEEELKPLEEALNAAGDDPKTIRDLISNINVIVLELKGSETTFMCEYADETATIIEFLNRWITFCQSIISTLT
330 nM | 0.12 s⁻¹ | 378 nM | in silico designed IL-2 variant SEQ ID NO: 9, MSA fusion protein (ligand, not shown: large carriers; small tags and cut ends) APTSSSTKKTQLQLEHLLLDLQMILNMLNNYDNPKLTRLLTFKFYMPKKATSLKHLQCLEEELKPLEEALNQADSTDSRIRDLISNINVIVLELKGSETTFMCEYADETATIIEFLNRWITFCQSIISTLT
315 nM | 0.046 s⁻¹ | 398 nM | in silico designed IL-2 variant SEQ ID NO: 6, MSA fusion protein (ligand, not shown: large carriers; small tags and cut ends) APTSSSTKKTQLQLEHLLLDLQMILNMLNNYENPKLTRMLTFKFYMPKKATSLKHLQCLEEELKPLEEALNQAGDDPKTIRDLISNINVIVLELKGSETTFMCEYADETATIIEFLNRWITFCQSIISTLT
292 nM | 0.047 s⁻¹ | 362 nM | in silico designed IL-2 variant SEQ ID NO: 5, MSA fusion protein (ligand, not shown: large carriers; small tags and cut ends) APTSSSTKKTQLQLEHLLLDLQMILNMLNNYDNPKLTRLLTFKFYMPKKATSLKHLQCLEEELKPLEEALNDAGDDPKTIRDLISNINVIVLELKGSETTFMCEYADETATIIEFLNRWITFCQSIISTLT
241 nM | 0.091 s⁻¹ | 268 nM | in silico designed IL-2 variant SEQ ID NO: 17, MSA fusion protein (ligand, not shown: large carriers; small tags and cut ends) APTSSSTKKTQLQLEHLLLDLQMILNMLNNYDNPKLTRLLTFKFYMPKKATSLKHLQCLEEELKPLEEALNLAQSKNFHLDPRDLISNINVIVLELKGSETTFMCEYADETATIIEFLNRWITFCQSIISTLT
105 nM | 0.015 s⁻¹ | 137 nM | in silico designed IL-2 variant SEQ ID NO: 10, MSA fusion protein (ligand, not shown: mouse serum albumin (MSA), fusion partner) APTSSSTKKTQLQLEHLLLDLQMILNMLNNYDNPKLTRLLTFKFYMPKKATSLKHLQCLEEELKPLEEALNQASKDQKKVRDVVSNINVFVLELKGSETTFMCEYADETATIIEFLNRWITFCQSIISTLT
56.7 nM | 0.0026 s⁻¹ | 85.4 nM | in silico designed IL-2 variant SEQ ID NO: 7, MSA fusion protein (ligand, not shown: large carriers; small tags and cut ends) APTSSSTKKTQLQLEHLLLDLQMILNMLNNYDNPKLTRMLTFKFYMPKKATELKHLQCLEEELKPLEEALNQADSTDETVRDLISNINVIVLELKGSETTFMCEYADETATIIEFLNRWITFCQSIISTLT
51.2 nM | 0.023 s⁻¹ | 67.6 nM | in silico designed IL-2 variant SEQ ID NO: 12, MSA fusion protein (ligand, not shown: large carriers; small tags and cut ends) APTSSSTKKTQLQLEHLLLDLQMILNMLNNYDNPKLTRMLTFKFYMPKKATELKHLQCLEEELKPLEEALNHAADDKDTIRDLISNINVIVLELKGSETTFMCEYADETATIIEFLNRWITFCQSIISTLT
8.7 nM | 0.0036 s⁻¹ | 22.7 nM | in silico designed IL-2 variant SEQ ID NO: 11, MSA fusion protein (ligand, not shown: large carriers; small tags and cut ends) APTSSSTKKTQLQLEHLLLDLQMILNMLNNYSNPKLTRLLTFKFYMPKKATSLKHLQCLEEELKPLEEALNLASDDQDKVRDVVSNINVFVLELKGSETTFMCEYADETATIIEFLNRWITFCQSIISTLT
5.9 nM | 0.0044 s⁻¹ | 14.2 nM | in silico designed IL-2 variant SEQ ID NO: 8, MSA fusion protein (ligand, not shown: large carriers; small tags and cut ends) APTSSSTKKTQLQLEHLLLDLQMILNMLNNYDNPKLTRLLTFKFYMPKKATSLKHLQCLEEELKPLEEALNAADSTDERIRDVVSNINVFVLELKGSETTFMCEYADETATIIEFLNRWITFCQSIISTLT
